B1: Flag-1–2–3 (2–299) (domain or fragment, UniProt P11940 2-299, looked up)
chain: NPSAPSYPMASLYVGDLHPDVTEAMLYEKFSPAGPILSIRVCRDMITRRSLGYAYVNFQQPADAERALDTMNFDVIKGKPVRIMWSQRDPSLRKSGVGNIFIKNLDKSIDNKALYDTFSAFGNILSCKVVCDENGSKGYGFVHFETQEAAERAIEKMNGMLLNDRKVFVGRFKSRKEREAELGARAKEFTNVYIKNFGEDMDDERLKDLFGKFGPALSVKVMTDESGKSKGFGFVSFERHEDAQKAVDEMNGKELNGKQIYVGRAQKKVERQTELKRKFEQMKQDRITRYQGVNLYVK
B2: GST-RRM2-3 (residues 97–299) (domain or fragment, UniProt P11940 97-299, looked up)
chain: GVGNIFIKNLDKSIDNKALYDTFSAFGNILSCKVVCDENGSKGYGFVHFETQEAAERAIEKMNGMLLNDRKVFVGRFKSRKEREAELGARAKEFTNVYIKNFGEDMDDERLKDLFGKFGPALSVKVMTDESGKSKGFGFVSFERHEDAQKAVDEMNGKELNGKQIYVGRAQKKVERQTELKRKFEQMKQDRITRYQGVNLYVK
B3: Flag-2–3 (97–299) (domain or fragment, UniProt P11940 97-299, looked up)
chain: B2 chain
B4: Flag-linker2-RRM3 (176–299) (domain or fragment, UniProt P11940 176-299, looked up)
chain: RKEREAELGARAKEFTNVYIKNFGEDMDDERLKDLFGKFGPALSVKVMTDESGKSKGFGFVSFERHEDAQKAVDEMNGKELNGKQIYVGRAQKKVERQTELKRKFEQMKQDRITRYQGVNLYVK
B5: Flag-1–2–3–4 (2–371) (domain or fragment, UniProt P11940 2-371, looked up)
chain: NPSAPSYPMASLYVGDLHPDVTEAMLYEKFSPAGPILSIRVCRDMITRRSLGYAYVNFQQPADAERALDTMNFDVIKGKPVRIMWSQRDPSLRKSGVGNIFIKNLDKSIDNKALYDTFSAFGNILSCKVVCDENGSKGYGFVHFETQEAAERAIEKMNGMLLNDRKVFVGRFKSRKEREAELGARAKEFTNVYIKNFGEDMDDERLKDLFGKFGPALSVKVMTDESGKSKGFGFVSFERHEDAQKAVDEMNGKELNGKQIYVGRAQKKVERQTELKRKFEQMKQDRITRYQGVNLYVKNLDDGIDDERLRKEFSPFGTITSAKVMMEGGRSKGFGFVCFSSPEEATKAVTEMNGRIVATKPLYVALAQRK
B6: GST-CTD (residues 372–636) (domain or fragment, UniProt P11940 372-636, looked up)
chain: EERQAHLTNQYMQRMASVRAVPNPVINPYQPAPPSGYFMAAIPQTQNRAAYYPPSQIAQLRPSPRWTAQGARPHPFQNMPGAIRPAAPRPPFSTMRPASSQVPRVMSTQRVANTSTQTMGPRPAAAAAAATPAVRTVPQYKYAAGVRNPQQHLNAQPQVTMQQPAVHVQGQEPLTASMLASAPPQEQKQMLGERLFPLIQAMHPTLAGKITGMLLEIDNSELLHMLESPESLRSKVDEAVAVLQAHQAKEAAQKAVNSATGVPTV
B7: Flag-C (372–636) (domain or fragment, UniProt P11940 372-636, looked up)
chain: B6 chain
B8: His-PABP 4EA mutant-Flag (natural protein, UniProt P11940 2-636, looked up)
chain: NPSAPSYPMASLYVGDLHPDVTEAMLYEKFSPAGPILSIRVCRDMITRRSLGYAYVNFQQPADAERALDTMNFDVIKGKPVRIMWSQRDPSLRKSGVGNIFIKNLDKSIDNKALYDTFSAFGNILSCKVVCDENGSKGYGFVHFETQEAAERAIEKMNGMLLNDRKVFVGRFKSRKARAAALGARAKAFTNVYIKNFGEDMDDERLKDLFGKFGPALSVKVMTDESGKSKGFGFVSFERHEDAQKAVDEMNGKELNGKQIYVGRAQKKVERQTELKRKFEQMKQDRITRYQGVNLYVKNLDDGIDDERLRKEFSPFGTITSAKVMMEGGRSKGFGFVCFSSPEEATKAVTEMNGRIVATKPLYVALAQRKEERQAHLTNQYMQRMASVRAVPNPVINPYQPAPPSGYFMAAIPQTQNRAAYYPPSQIAQLRPSPRWTAQGARPHPFQNMPGAIRPAAPRPPFSTMRPASSQVPRVMSTQRVANTSTQTMGPRPAAAAAAATPAVRTVPQYKYAAGVRNPQQHLNAQPQVTMQQPAVHVQGQEPLTASMLASAPPQEQKQMLGERLFPLIQAMHPTLAGKITGMLLEIDNSELLHMLESPESLRSKVDEAVAVLQAHQAKEAAQKAVNSATGVPTV
B9: Flag-Linker (372–543) (domain or fragment, UniProt P11940 372-543, looked up)
chain: EERQAHLTNQYMQRMASVRAVPNPVINPYQPAPPSGYFMAAIPQTQNRAAYYPPSQIAQLRPSPRWTAQGARPHPFQNMPGAIRPAAPRPPFSTMRPASSQVPRVMSTQRVANTSTQTMGPRPAAAAAAATPAVRTVPQYKYAAGVRNPQQHLNAQPQVTMQQPAVHVQGQE

Tests used:
GST-PABP WT = GST-PABP WT (UniProt P11940 1-636); test: co-IP
Flag-1–2–3–4 (2–371) = target: B5; test: co-IP
Flag-2–3 (97–299) = target: B3; test: co-IP
[1] = target: B2; test: pull-down
[2] = target: B2; test: co-IP
Flag-C (372–636) = target: B7; test: co-IP
His-PABP WT-Flag = His-PABP WT-Flag (UniProt P11940 2-636); test: co-IP
SEC = target: the molecule itself; test: SEC
[3] = target: B6; test: co-IP

Binder: B1
binding result (GST-PABP WT): binds

Binder: B2
binding result (Flag-1–2–3–4 (2–371)): binds
binding result (Flag-2–3 (97–299)): binds

Binder: B3
binding result (GST-PABP WT): binds
binding result [1]: binds

Binder: B4
binding result [2]: binds

Binder: B5
binding result (GST-PABP WT): binds

Binder: B6
binding result (Flag-C (372–636)): binds
binding result (His-PABP WT-Flag): binds

Binder: B7
binding result (GST-PABP WT): binds

Binder: B8
stoichiometry N (SEC): 2

Binder: B9
binding result [3]: binds
